Results: PMC3461508
Each block holds one binder with its values, some of them ahead of it.

Target: mitochondrial ribosome (S. cerevisiae (endogenous in W303))
Assay: co-sedimentation

percent bound to the ribosome: 20%
B1: Cbp6 (natural protein)
chain: MSSSQVVRDSAKKLVNLLEKYPKDRIHHLVSFRDVQIARFRRVAGLPNVDDKGKSIKEKKPSLDEIKSIINRTSGPLGLNKEMLTKIQNKMVDEKFTEESINEQIRALSTIMNNKFRNYYDIGDKLYKPAGNPQYYQRLINAVDGKKKESLFTAMRTVLFGK

percent bound to the ribosome: 20%
B2: Cbp3 (natural protein)
chain: ETAQDSPELLAKSSHLNSKPLDVSNKAPVKTAQNKIPLAHSKYESSKYELPKWKEALGELVIRAFHLDMDRVRAGPVAGSYYYKICKEQGLQYEDEPLSETAKYFYEDLKLPRTFSQWFQITVLHEWILFVRMRAMPFKYGRNYQQKLVDRTFSDIELRLFEEMKVNSGRIADQYLKDFNTQLRGAIFAYDEGFATDDGTLATAVWRNLFGGRKNIDMVHLESVVRYIYSQLYVLSRLSDREFATGKFKFVPPGVKVEKLTPKQEEELKAKTIAKYEALDKDPKTLPSERSRLSYTN
